Here are results for 1 substance from US20120322975A1.

Test [1] concerns the target dog factor D (in dog serum) (dog). The test is described as follows: cell-based or functional assay. Particulars: scale: times less effective than on human factor D.
Test [2] addresses human factor D (purified from human serum) (human) (UniProt P00746). The test is described as follows: cell-based or functional assay.
Chain of UniProt P00746 (P00746 26-253 N180D): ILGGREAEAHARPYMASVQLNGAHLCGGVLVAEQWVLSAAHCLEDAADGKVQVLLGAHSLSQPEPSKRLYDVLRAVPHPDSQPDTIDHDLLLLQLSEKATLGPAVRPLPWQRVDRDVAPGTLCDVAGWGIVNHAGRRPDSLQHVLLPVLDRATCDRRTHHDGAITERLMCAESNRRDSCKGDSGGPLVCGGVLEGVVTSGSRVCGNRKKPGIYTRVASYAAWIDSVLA

For MAb 166-32 (antibody), in test [1], the neutralization of dog factor D in hemolytic assays, compared to human factor D is over 10. In test [2], the alternative pathway hemolytic activity of plasma from extracorporeal circuits (18 µg/ml antibody in human whole blood) (molar ratio (MAb:factor D)) came to 1.5 and the inhibition of factor D dependent alternative pathway hemolysis of unsensitized rabbit RBCs (factor D depleted serum with supplemented factor D) came out at 0.3 µg/mL.
